Measurements reported in patent US20140323699A1 (CALIFORNIA INSTITUTE OF TECHNOLOGY, published 2014).

Biological target: T1, glycosylated synapsin I from olfactory bulb lysate (rat, UniProt P09951 1-704, limits assumed, Fucα(1-2)Gal glycosylated (sites not given))
T1 construct: Endogenous protein in tissue lysate, detected by Western blot with mouse anti-synapsin I ascites
Experiment: lectin affinity chromatography on UEAI-agarose, elution with 200 mM L-fucose, Western blot for synapsin I

binding result: no binding (tested: 500 µg lysate)
B1: UEAI lectin conjugated to agarose (Vector Laboratories) (other, UniProt P22972 1-243, looked up)
chain: SDDLSFKFKNFSQNGKDLSFQGDASVIETGVLQLNKVGNNLPDETGGIARYIAPIHIWNCNTGEVASFITSFSFFMETSANPKAATDGLTFFLAPPDSPLRRAGGYFGLFEDTKDNDSSYQTVAVEFDTIGSPVNFDDPGFPHIGIDVNRVKSINAERWNKRYGLNNVANVEIIYEASSKTLTASLTYPSDQTSISVTSIVDLKEILPEWVSVGFSGGTYIGRQATHEVLNWYFTSNLINTNS
modifications: conjugated to agarose
